This note sets out measurements from US20130052198A1, “ANTI-INFLAMMATORY FACTORS” (THE GENERAL HOSPITAL CORPORATION, priority 2010, published 2013).

“Also recorded” adds a separate entry of the source.

In one assay the test system is leukocytes. As to the kind of experiment: IFN-γ production by LPS-stimulated leukocytes, ELISA. The assay is classed as cell-based, human. As to the method:
(§1) Leukocytes were prepared from fresh whole human blood, collected and spun in the presence of Ficoll for 30 minutes at 1500×g. The mononuclear cell layer was transferred to a new tube where it was washed once with RPMI 1640. The mononuclear cells were plated at a density of 1×10^5 per well of a 96-well plate in 50 μL of RPMI 1640 per well. MSC-CM was then immediately added to each well and allowed to incubate in the presence of the mononuclear cells for 16 hours. After incubation, 50 μL of RPMI 1640 containing 10 μg/mL of LPS was added to each well and allowed to incubate for an additional 5 hours. The resultant supernatants were collected and analyzed via ELISA for human interleukin-10 (IL-10). This procedure of incubating leukocytes with MSC-CM to determine IL-10 stimulating activity will be henceforth referred to as the “IL-10 assay”.
(§2) Preparations and use of MSC-CM, Fb-CM, LPS-stimulated MSC-CM, leukocytes were as described in Examples 1-3 and the Figures. These conditioned media preparations were added to leukocyte cultures for 16 hours, after which the culture was stimulated with LPS at 10 μg/ml. The medium from this culture was collected 24 hours after LPS stimulation of leukocytes and analyzed using an IFN-γ ELISA.
In general terms: In an ELISA, binding on a coated surface is turned into a signal by an enzyme label.

Assay [1] deals with human leukocytes in culture. As to the kind of experiment: Cytokine production (IL-10 or IFN-γ) in human leukocytes in culture. The assay is classed as cell-based. Conditions: concentrations within five orders of magnitude of 10 μg/mL. On the procedure:
as §1, §2

Assay [2] concerns BALB/cJ mice challenged with a lethal dose of LPS. The assay can be described thus: Lethal LPS model, survival. The assay is classed as in vivo. The note with it: 350 μg LPS i.p. with 4 μg protein; monitored seven days. On the procedure:
(§3) FIG. 8: In vivo hit screen and survival study. (a) Schematic of the in vivo LPS assay. Proteins were administered intraperitoneal (IP) at the concentration that elicited the strongest effect in vitro, followed by IP administration of LPS in conjunction with a second dose of the proteins 16 hours later. Two days after the combined LPS and second protein dose, the mice were sacrificed and assessed for changes in serum cytokines and tissue histology. (b) Serum IL-10 levels of BALB/cJ mice subjected to the in vivo LPS assay. * p<0.001 compared to saline. (c) Serum TNF-α levels of BALB/cJ mice subjected to the in vivo LPS assay. * p<0.001 compared to saline, ** p<0.05 compared to BMSC-CM. (d) Representative micrographs of lung tissue from mice subjected to the in vivo LPS assay stained with hematoxylin and eosin. (e) Survival of mice subjected to a lethal dose of LPS i.p. (350 μg) concurrently with i.p. saline vehicle (bold dark blue line), 5 μg Anti-TNF-α antibody (thin dark blue line), 4 μg PENK (bold light blue line) or 4 μg MFAP5 (thin light blue line). Scale bar=200 μm.
All procedures were performed in accordance with the animal rights policies of the Massachusetts General Hospital Subcommittee on Research Animal Care. […] Mice were monitored for survival for seven days (168 hours).

Assay [3] concerns human peripheral blood mononuclear cells (PBMCs). As to the kind of experiment: PBMC potency assay (IL-10 assay): IL-10 secretion by LPS-stimulated PBMCs, ELISA. The assay is classed as cell-based. Conditions: recombinant molecules diluted in RPMI 1640. The text has this:
FIG. 1: MSC conditioned medium causes peripheral blood mononuclear cells to secrete IL-10 in response to LPS, providing the basis for differential gene expression analysis to identify genes responsible for the increased activity. (a) Generalized schematic of EPS methodology. Protein products are derived from various cell types in the form of conditioned media and screened for activity in an in vitro potency assay. […] Recombinant protein products of the enriched gene list are then screened in a potency assay and the candidates with the highest activity are assessed for activity in vivo. (b) In vitro potency assay. This assay entails incubating primary human peripheral blood mononuclear cells (PBMCs) in the presence of protein products (e.g., conditioned medium from a cell) for 16 hours, followed by stimulation of the PBMCs with LPS for five hours, and measurement of IL-10 secretion into the supernatant via ELISA. (c) Time course of IL-10 expression from PBMCs when incubated with either bone marrow stromal cell conditioned medium (BMSC-CM) or unconditioned medium (DMEM) in the potency assay. (d) Comparison of potency assay activity of conditioned medium from normal human dermal fibroblasts (FB-CM), BMSCs (BMSC-CM) and BMSCs preincubated with LPS prior to conditioning (BMSCLPS-CM). * p<0.001 compared to FB-CM, ** p<0.001 compared to BMSC-CM. (e) Schematic of the differential gene expression comparison strategy to select for genes uniquely expressed at high levels in LPS stimulated MSCs (MSCLPS) compared to MSCs and fibroblasts (FBs). Analysis was then conducted on the genes identified to select for genes that were most likely to be responsible for secreted proteins. MSCLPS, LPS stimulated MSC; FB, fibroblast. […]
Leukocytes were prepared from fresh whole human blood, collected and spun in the presence of Ficoll for 30 minutes at 1500×g. […] The resultant supernatants were collected and analyzed via ELISA for human interleukin-10 (IL-10). […]

In assay [4] the test system is colitic mice (TNBS colitis). The assay can be described thus: TNBS colitis in mice, colon histopathology. The note with it: 3 μg protein twice over 24 h; sacrifice at day 2; compared to vehicle (saline). The assay is classed as in vivo. On the procedure:
FIG. 6: Administered MFAP5 and LGALS3BP protect mice from developing TNBS colitis. Mice were presensitized via the skin with 1% TNBS one week prior to intra-rectal administration of 3 mg of TNBS per mouse in a mixture of 50% EtOH and 50% sterile water to induce colitis. Mice were treated with 3 μg each of MFAP5, LGALS3BP and GALNT1 twice over a 24 hour period, once in conjunction with the TNBS administration and once 24 hours later. Mice were then sacrificed at day 2 and tissue collected for analysis. As expected, mice treated with vehicle (saline) developed extensive inflammation of the colon with loss of crypts and frank necrosis of the intestinal epithelium.
MFAP5, LGALS3BP and PENK all protected the colonic epithelium from the hallmark features of TNBS colitis: necrosis, inflammatory infiltrate and loss of crypts. Especially at the microscopic level, the tissue of the MFAP5, LGALS3BP and PENK treated animals looked mostly normal with minor foci of inflammation and edema.

Assay [5] relates to BALB/cJ mice challenged with a sub-lethal dose of LPS. As to the kind of experiment: In vivo LPS assay, sub-lethal LPS model: serum cytokines and lung histology. As to the method: as §3
All procedures were performed in accordance with the animal rights policies of the Massachusetts General Hospital Subcommittee on Research Animal Care. For the sub-lethal LPS model, eight week old female BALB/cJ mice (n≧3) (Jackson Laboratories, Bar Harbor, Me.) were administered an initial dose of either vehicle or one of the experimental therapies IP: 200 μL of saline (vehicle), or 3 μg of protein (e.g., GALNT1, LGALS3BP, MFAP5 or PENK) diluted in 200 μL of saline, or 1 mL of 1×BMSC-CM. 16 hours later, mice received a second dose of either vehicle or therapy in conjunction with a dose of 100 μg of LPS (E. coli 0111:B4; Sigma, St. Louis, Mo.) diluted in physiological saline. 48 hours later, mice were sacrificed and tissue and blood were collected for analysis. Serum was tested for the presence of IL-10 and TNF-α via ELISA and lungs, livers and kidneys of the animals were preserved for hematoxylin and eosin staining. For the lethal LPS model, eight week old female BALB/cJ mice (n≧5) were co-administered a lethal dose of LPS (350 μg LPS in 100 μL physiological saline) and either vehicle (negative control), 5 μg anti-TNF-α (positive control; R&D Systems, Minneapolis, Minn.), 4 μg MFAP5 diluted in 100 μL of physiological saline, or 4 μg of PENK diluted in 100 μL of physiological saline. Mice were monitored for survival for seven days (168 hours).

[6] abbreviates: 3 μg protein or 1 mL 1×BMSC-CM IP, twice, 100 μg LPS, 48 h later, compared to saline.

B1: HAPLN1: Hyaluronan and proteoglycan link protein 1; purified, recombinant form (protein, UniProt P10915 16-354, looked up)
Hyaluronan and proteoglycan …: DHLSDNYTLDHDRAIHIQAENGPHLLVEAEQAKVFSHRGGNVTLPCKFYRDPTAFGSGIHKIRIKWTKLTSDYLKEVDVFVSMGYHKKTYGGYQGRVFLKGGSDSDASLVITDLTLEDYGRYKCEVIEGLEDDTVVVALDLQGVVFPYFPRLGRYNLNFHEAQQACLDQDAVIASFDQLYDAWRGGLDWCNAGWLSDGSVQYPITKPREPCGGQNTVPGVRNYGFWDKDKSRYDVFCFTSNFNGRFYYLIHPTKLTYDEAVQACLNDGAQIAKVGQIFAAWKILGYDRCDAGWLADGSVRYPISRPRRRCSPTEAAVRFVGFPDKKHKLYGVYCFRAYN
Turning to B1, the “IFN-γ production of leukocytes stimulated with LPS” value with leukocytes (16 h incubation, LPS 10 μg/ml, medium collected 24 h after LPS) is on record as “independently reduce IFN-γ production”. Further, the “dose-dependency of IFN-γ production” value in the assay on leukocytes (HAPLN1 diluted in RPMI 1640) was “dose-dependency of IFN-γ production over several orders of magnitude”. For the same molecule, the “promote IL-10 production or suppress IFN-γ production” value in assay [1] is given as “either promote IL-10 production or suppress IFN-γ production”.

B2: MFAP5: Microfibrillar-associated protein 5, ECM glycoprotein; recombinant form tested (protein, UniProt Q13361 22-173, looked up)
Microfibrillar-associated …: IPLGVNSQRGDDVTQATPETFTEDPNLVNDPATDETVLAVLADIAPSTDDLASLSEKNTTAECWDEKFTCTRLYSVHRPVKQCIHQLCFTSLRRMYIVNKEICSRLVCKEHEAMKDELCRQMAGLPPRRLRRSNYFRLPPCENVDLQRPNGL
Regarding B2, the survival entry in assay [2] was “significant survival benefit”. Further, the “increase of IL-10 production compared to 10×MSC-CM” value in assay [3] is “superior to that induced by 10×MSC-CM”. Moreover, the “promote IL-10 production or suppress IFN-γ production” value in assay [1] is reported as “either promote IL-10 production or suppress IFN-γ production”. Further, the “protection from TNBS colitis (colon histopathology)” value in assay [4] is recorded as “protect the mice from developing acute colitis; also recorded: significant attenuation of colitis; also recorded: protected from developing extensive colonic inflammation”. Also, in assay [5] (setting [6]), the “serum IL-10 levels” value is listed as “Significantly elevated” and the “serum TNF-α” value is on record as “significantly suppressed”. Besides, the “lung histology (lung protection)” value in assay [5] (hematoxylin and eosin, sub-lethal LPS model, compared to vehicle) is reported as “superior lung protection”. For the same molecule, the “TNF-α suppression compared to BMSC-CM” value in assay [5] (serum, sub-lethal LPS model) is recorded as “superior TNF-α suppression”.
